Reference: publication PMC5300155, “Biochemical and biophysical investigations of the interaction between human glucokinase and pro-apoptotic BAD” (PLoS ONE, 2017)

Key:
Bcl-xL [1] = biological target: T1, Bcl-xL (Homo sapiens, UniProt Q07817, DEL45-84); assay: Isothermal titration calorimetry of BAD-GST with Bcl-xL; type: binding; conditions: ITC, 25°C; Bcl-xL (100 μM) titrated into BAD-GST (10–18 μM), 4 μL injections, BAD buffer pH 8.5; average of two independent experiments
T1 construct: made in house
Procedure: Exon 1 of human bcl-xl lacking the C-terminal residues 189–233 was obtained from Stanley Korsmeyer (Addgene plasmid 8755) and site-directed mutagenesis was performed to create the Δ45–84, Δ210–233 variant. Bcl-xL was expressed and purified using a modified procedure described previously. Briefly, Bcl-xL was purified by nickel affinity chromatography and dialyzed against potassium phosphate buffer (20 mM, pH 7.4) containing NaCl (50 mM), EDTA (1 mM), and DTT (10 mM). Protein was applied to a Superdex 200 10/30 HR size-exclusion column, at a flow rate of 0.02 mL/min, to remove aggregate and oligomers prior to binding assays.
Isothermal titration calorimetry was performed at 25°C using a MicroCal VP-ITC (GE Healthcare) instrument. Bcl-xL (100 μM) in BAD buffer (0.1 M Tris, 0.1 M KCl, 0.5 M arginine, 2.5 mM CHAPS, 5 mM TCEP, 10% glycerol, pH 8.5) was titrated into the calorimeter cell containing size-exclusion chromatography purified BAD-GST (10–18 μM) in 4 μL injections. A 21-residue phosphorylated peptide containing the BH3 domain of BAD was synthesized and purified to >95% by Peptide2.0 (pBH3 = NLWAAQRYGRELRRM(p)SDKFVD). […] Data were analyzed using Origin software.

Bcl-xL [2] = biological target: T1, Bcl-xL; assay: Analytical ultracentrifugation sedimentation velocity of 1:1 mixture BAD-GST and Bcl-xL; type: binding; conditions: 1:1 mixture of BAD-GST and Bcl-xL, 20°C, 50,000 x g, BAD buffer pH 8.5
Procedure: Sedimentation velocity experiments were conducted with an Optima XLI Ultracentrifuge (Beckman Coulter) using a four-hole rotor with three 420 μL samples in standard double-sector Epon centerpieces equipped with sapphire windows. Absorbance and interference data were collected simultaneously. Size-exclusion purified proteins were concentrated to OD280 nm = 0.3–1.0 prior to centrifugation. For complex formation, proteins were mixed in a 1:1 molar ratio in BAD buffer (0.1 M Tris, 0.1 M KCl, 0.5 M arginine, 2.5 mM CHAPS, 5 mM TCEP, 10% glycerol, pH 8.5) and incubated on ice 30 min prior to the start of the experiment. Experiments were carried out at 20°C and 50,000 x g. Data were analyzed with Ultrascan III software using a minimum of 70 scans per sample for analysis. Van Holde-Weischet analysis was performed to obtain S20,W values.

[3] = produced in Escherichia coli; ref [30]; cited from earlier work
From the text: (§1) To facilitate biochemical characterization of the BAD:GCK complex, we sought a method to produce functional, recombinant human BAD. Several groups have used microbial hosts to produce BAD, however, functional characterization of the resulting protein was limited.

[4] = Circular dichroism spectroscopy (secondary structure); type: physicochemical; conditions: far UV CD, 25°C, pH 7.8, 3–15 μM, CDPro
Procedure: Proteins were dialyzed overnight into potassium phosphate buffer (50 mM, pH 7.8) containing KCl (50 mM), glycerol (5% v/v), and TCEP (4 mM). CD spectra were recorded on an AVIV 202 CD spectrometer at 25°C with protein concentrations ranging from 3–15 μM. Spectra were recorded from 200–260 nm in 10 mm pathlength cuvettes using a 1 nm step resolution and 3 s integration time. Three scans were recorded per sample, averaged, and baseline subtracted with appropriate buffer controls. CD signals were converted to molar ellipticity and deconvoluted using CDPro Software.

[5] = Proteolysis and aggregation of recombinant BAD produced under native conditions; type: physicochemical
Procedure: Under native conditions, cell pellet was resuspended and lysed in HEPES buffer (50 mM, pH7.6) containing NaCl (50 mM), imidazole (25 mM), glycerol (5%), and DTT (5 mM). PMSF, benzamidine, a protease inhibitor cocktail (Pierce), and BSA (0.1 mg/mL) were added to the lysis buffer in attempts to reduce protein degradation. Clarified lysate was applied to a HisTrap affinity column and following purification, purified BAD-GST was applied to a Superdex 200 10/30 HR size-exclusion column, at a flow rate of 0.02 mL/min.
Protein samples were excised from SDS-PAGE gels and exposed to trypsin digestion prior to analysis by mass spectroscopy. MALDI-TOF was performed on a Shimadzu Axima CFP MALDI-TOF in positive ion, reflectron mode. Linear trap quadripole (LTQ) Orbitrap MS was performed on a Thermo LTQ Orbitrap Velos HPLC-nESI-LIT-Orbitrap.
as §1

T1 sequence (Q07817 with tags, fused parts or gaps DEL45-84): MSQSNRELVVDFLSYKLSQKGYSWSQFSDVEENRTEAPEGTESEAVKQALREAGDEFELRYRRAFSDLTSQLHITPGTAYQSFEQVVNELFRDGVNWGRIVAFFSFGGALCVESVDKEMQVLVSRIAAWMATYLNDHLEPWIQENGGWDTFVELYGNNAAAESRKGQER

Kd (Bcl-xL [1]): 7 nM
Sedimentation coefficient (Bcl-xL [2]): 2.1
B1: BAD-GST: recombinant human BAD with N-terminal hexahistidine tag and C-terminal GST fusion, TEV consensus sequence between (protein)
chain: MFQIPEFEPSEQEDSSSAERGLGPSPAGDGPSGSGKHHRQAPGLLWDASHQQEQPTSSSHHGGAGAVEIRSRHSSYPAGTEDDEGMGEEPSPFRGRSRSAPPNLWAAQRYGRELRRMSDEFVDSFKKGLPRPKSAGTATQMRQSSSWTRVFQSWWDRNLGRGSSAPSQ
modifications: left off: His6, N-terminal, state not stated | GST, C-terminal, kept
Proteolysis of recombinant BAD [3]: highly susceptible to proteolysis
Random coil content [4]: 30%
α-helical content [4]: 10%
β-sheet content [4]: 37%
Proteolysis during recombinant production ([5]; MALDI-TOF, protease inhibitors failed to alleviate degradation): extensive C-terminal proteolysis
Aggregation when produced under native conditions ([5]; native conditions, E. coli): leads to aggregation of the protein
